Results as given in patent US20240262906A1 (WELLMARKER BIO, published 2024).

Biological target: T1, IGSF1 overexpressed on cells (NCI-H292 IGSF1 O/E; HEK293E IGSF1 O/E) (human, UniProt Q8N6C5 581-1336)
T1 construct: Membrane protein expressed from a commercial vector (OriGene RC209621); also called IGSF1 antigen in cells
T1 sequence: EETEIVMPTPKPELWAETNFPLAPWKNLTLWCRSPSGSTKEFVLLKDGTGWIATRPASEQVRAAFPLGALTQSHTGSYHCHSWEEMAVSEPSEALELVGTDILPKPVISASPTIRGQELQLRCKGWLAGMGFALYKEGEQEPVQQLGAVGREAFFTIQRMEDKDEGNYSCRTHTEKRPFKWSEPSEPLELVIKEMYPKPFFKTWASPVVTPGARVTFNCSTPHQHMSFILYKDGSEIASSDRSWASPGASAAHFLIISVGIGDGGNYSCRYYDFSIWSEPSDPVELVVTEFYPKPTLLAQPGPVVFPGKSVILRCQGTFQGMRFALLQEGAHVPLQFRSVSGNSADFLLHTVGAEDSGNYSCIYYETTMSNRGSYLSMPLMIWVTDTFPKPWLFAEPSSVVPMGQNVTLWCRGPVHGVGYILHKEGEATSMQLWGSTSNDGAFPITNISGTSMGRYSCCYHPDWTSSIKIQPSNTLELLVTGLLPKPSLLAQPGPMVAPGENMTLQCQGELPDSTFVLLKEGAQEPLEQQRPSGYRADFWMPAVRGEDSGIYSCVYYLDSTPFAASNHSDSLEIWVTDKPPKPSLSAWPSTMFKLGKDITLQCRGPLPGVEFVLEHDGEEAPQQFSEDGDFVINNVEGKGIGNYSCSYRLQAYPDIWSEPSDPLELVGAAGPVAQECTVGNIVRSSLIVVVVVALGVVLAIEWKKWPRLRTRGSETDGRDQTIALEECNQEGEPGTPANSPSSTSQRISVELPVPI
Experiment: flow cytometry on NCI-H292 IGSF1 O/E cells, FITC anti-human IgG detection
Procedure: Specifically, the medium of NCI-H292 IGSF1 O/E cells and NCI-H292 MOCK cells was removed, washed once with PBS, and then treated with 2 ml of 0.25% trypsin-EDTA, and the cells were isolated. The isolated cells were diluted with 8 ml of PBS (hereinafter referred to as FACS buffer) containing 2% FBS and 0.05% sodium azide, and then the supernatant was removed by centrifugation at 1,200 rpm for 1 minute. Then, the cells were resuspended in FACS buffer to 1×10⁵ cells/ml. Thereafter, 1 ml of each was dispensed in a FACS tube, and the supernatant was removed by centrifugation at 1,200 rpm for 1 minute.
After the reaction was completed, 1 ml of FACS buffer was added to each tube, and the supernatant was removed by centrifugation at 1,200 rpm for 1 minute. This process was performed a total of two times. […]
Finally, after removal of the supernatant, the remaining pellet was resuspended in 200 μl of FACS buffer and analyzed by FACS. For FACS analysis, FITC fluorescence value labeled in each cell was measured using a BD LSRFortessa™ flow cytometer, and then the results were analyzed using a FlowJo software, and EC50 value was calculated using a sigma plot program. […]

B1: WM-A1-3389 antibody (antibody, human IgG1, kappa, V domains shown)
VH: QVQLVQSGAEVKRPGSSVKVSCKASGGTFSTYAISWVRQAPGQGLEWMGRIIPFVGTVDYAQKFQDRVTITADKSTNTAYMELSSLRSEDTAVYYCVRDGGRSYFDSWGPGILVTVSS
VL: QFVLTQPPSVSAAPGQDVIISCSGNTSNIGSNLVSWFQQFPETAPKLLIYDNHKRPSGISDRFSGTKSGTSASLAISGLQSEDEADYYCVAWDDSLNGYVFGTGTKVTVLR
notes: Human antibody from a phage library, converted to whole IgG; also called anti-IGSF1 antibody
EC50: ~69 nM
